These results are taken from the supplement of paper PMC9112550, “Optimization of the antimicrobial peptide Bac7 by deep mutational scanning” (BMC Biology, 2022).
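Further: peptides expressed intracellularly from a pBAD plasmid library in pooled LB shake-flask culture, induced with 0.3% L-arabinose, DNA abundance read by NGS, three biological replicates, DESeq2 with apeglm shrinkage.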

In this data set the test system is Escherichia coli TOP10. Briefly: shrunken log2 fold change of peptide-encoding DNA abundance (4.5 h post-induction vs induction); higher = less antimicrobial activity (less host growth inhibition). As to conditions: time post-induction: 4.5 h; library: site-saturation at positions 5, 18, 19, 20.
RRIRARPPRLPRPRPRPRIAPRP: the “shrunken log2 fold change” value came to 0.631.

On to RRIRMRPPRLPRPRPRPFGAPRP, for which the “shrunken log2 fold change” value was determined as 0.329.

On to RRIRLRPPRLPRPRPRPRNPPRP, for which the “shrunken log2 fold change” value is -0.0997.

Turning to RRIRSRPPRLPRPRPRPLLYPRP, the “shrunken log2 fold change” value was -0.162.

Regarding RRIRMRPPRLPRPRPRPHCNPRP, the “shrunken log2 fold change” value was found to be 0.043.

Take RRIRRRPPRLPRPRPRPHYMPRP: the “shrunken log2 fold change” value was -0.126.

RRIRGRPPRLPRPRPRPADGPRP: the “shrunken log2 fold change” value was -0.133.

Regarding RRIRERPPRLPRPRPRPPINPRP, the “shrunken log2 fold change” value was -0.224.

RRIRSRPPRLPRPRPRPEKLPRP: the “shrunken log2 fold change” value is -0.264.

As to RRIRKRPPRLPRPRPRPNILPRP, the “shrunken log2 fold change” value is -0.193.

Turning to RRIRARPPRLPRPRPRPSLIPRP, the “shrunken log2 fold change” value was -0.0273.

Turning to RRIRLRPPRLPRPRPRPMMWPRP, the “shrunken log2 fold change” value was 0.148.

Consider RRIRDRPPRLPRPRPRPMEQPRP, for which the “shrunken log2 fold change” value is -0.164.

Regarding RRIRWRPPRLPRPRPRPNSPPRP, the “shrunken log2 fold change” value was -0.255.

On to RRIRSRPPRLPRPRPRPEREPRP, for which the “shrunken log2 fold change” value is -0.0693.

Regarding RRIRGRPPRLPRPRPRPGLLPRP, the “shrunken log2 fold change” value was determined as 0.791.

RRIRGRPPRLPRPRPRPATQPRP: the “shrunken log2 fold change” value is 0.631.

Regarding RRIRFRPPRLPRPRPRPMTTPRP, the “shrunken log2 fold change” value came to 0.000405.

Consider RRIRWRPPRLPRPRPRPCRIPRP, for which the “shrunken log2 fold change” value is -0.113.

Regarding RRIRLRPPRLPRPRPRPVCRPRP, the “shrunken log2 fold change” value is 0.091.

Regarding RRIRWRPPRLPRPRPRPQHEPRP, the “shrunken log2 fold change” value was -0.0328.

Take RRIRVRPPRLPRPRPRPGFGPRP: the “shrunken log2 fold change” value came to 0.408.

Turning to RRIRLRPPRLPRPRPRPTQTPRP, the “shrunken log2 fold change” value was -0.0101.

On to RRIRARPPRLPRPRPRPTPVPRP, for which the “shrunken log2 fold change” value came to 0.696.

For RRIRLRPPRLPRPRPRPPVVPRP, the “shrunken log2 fold change” value turned out to be 0.218.

As for RRIRARPPRLPRPRPRPSRNPRP, the “shrunken log2 fold change” value was -0.0178.

In the case of RRIRCRPPRLPRPRPRPKEKPRP, the “shrunken log2 fold change” value worked out at 0.00563.

For the sequence RRIRHRPPRLPRPRPRPKWVPRP, the “shrunken log2 fold change” value is -0.302.

Consider RRIRLRPPRLPRPRPRPCRHPRP, for which the “shrunken log2 fold change” value was -0.601.

In the case of RRIRVRPPRLPRPRPRPLTLPRP, the “shrunken log2 fold change” value is -0.416.

In the case of RRIRNRPPRLPRPRPRPEVWPRP, the “shrunken log2 fold change” value was found to be 0.815.

As for RRIRVRPPRLPRPRPRPCFTPRP, the “shrunken log2 fold change” value was -0.0879.

In the case of RRIRRRPPRLPRPRPRPMTHPRP, the “shrunken log2 fold change” value was -0.17.

For RRIRKRPPRLPRPRPRPSWLPRP, the “shrunken log2 fold change” value turned out to be 0.303.

Take RRIRDRPPRLPRPRPRPYQSPRP: the “shrunken log2 fold change” value was -1.12.

Consider RRIRCRPPRLPRPRPRPMAYPRP, for which the “shrunken log2 fold change” value is -0.00456.

As for RRIRQRPPRLPRPRPRPHTFPRP, the “shrunken log2 fold change” value was -0.174.

For the sequence RRIRRRPPRLPRPRPRPFTRPRP, the “shrunken log2 fold change” value is -0.0292.

On to RRIRVRPPRLPRPRPRPLYIPRP, for which the “shrunken log2 fold change” value is -0.555.

With RRIRGRPPRLPRPRPRPKGYPRP, the “shrunken log2 fold change” value was 0.214.

Consider RRIRYRPPRLPRPRPRPKGLPRP, for which the “shrunken log2 fold change” value is -0.0102.

With RRIRFRPPRLPRPRPRPWYTPRP, the “shrunken log2 fold change” value is -0.38.

With RRIRDRPPRLPRPRPRPNMVPRP, the “shrunken log2 fold change” value is 0.136.

Consider RRIRSRPPRLPRPRPRPQNRPRP, for which the “shrunken log2 fold change” value was -0.106.

With RRIRWRPPRLPRPRPRPTMIPRP, the “shrunken log2 fold change” value was -0.0926.

Consider RRIRCRPPRLPRPRPRPGGGPRP, for which the “shrunken log2 fold change” value was 0.76.

For RRIRWRPPRLPRPRPRPNEHPRP, the “shrunken log2 fold change” value is -0.113.

With RRIRKRPPRLPRPRPRPLNTPRP, the “shrunken log2 fold change” value was 0.143.

Take RRIRPRPPRLPRPRPRPYALPRP: the “shrunken log2 fold change” value was -1.08.

In the case of RRIRPRPPRLPRPRPRPGCQPRP, the “shrunken log2 fold change” value was -0.0622.

RRIRHRPPRLPRPRPRPSHCPRP: the “shrunken log2 fold change” value is -0.0642.

Turning to RRIRKRPPRLPRPRPRPNVIPRP, the “shrunken log2 fold change” value amounted to 0.0501.

Consider RRIRLRPPRLPRPRPRPYDQPRP, for which the “shrunken log2 fold change” value was -0.562.

For RRIRQRPPRLPRPRPRPPGRPRP, the “shrunken log2 fold change” value amounted to 0.853.

RRIRPRPPRLPRPRPRPWVKPRP: the “shrunken log2 fold change” value is -0.0754.

Consider RRIRMRPPRLPRPRPRPCSWPRP, for which the “shrunken log2 fold change” value was found to be 0.0611.

For the sequence RRIRTRPPRLPRPRPRPNCIPRP, the “shrunken log2 fold change” value was -0.288.

Turning to RRIRYRPPRLPRPRPRPGTIPRP, the “shrunken log2 fold change” value turned out to be 0.137.

As to RRIRSRPPRLPRPRPRPCEMPRP, the “shrunken log2 fold change” value amounted to 0.0253.

Regarding RRIRIRPPRLPRPRPRPEDLPRP, the “shrunken log2 fold change” value is -0.00555.

For RRIRSRPPRLPRPRPRPDWNPRP, the “shrunken log2 fold change” value was -0.298.

RRIRKRPPRLPRPRPRPRHFPRP: the “shrunken log2 fold change” value came to 0.0965.

In the case of RRIRWRPPRLPRPRPRPQADPRP, the “shrunken log2 fold change” value was -0.104.

In the case of RRIRQRPPRLPRPRPRPTQMPRP, the “shrunken log2 fold change” value is 0.0693.

Regarding RRIRDRPPRLPRPRPRPQSTPRP, the “shrunken log2 fold change” value was -0.466.

As to RRIRPRPPRLPRPRPRPLVSPRP, the “shrunken log2 fold change” value amounted to 0.00371.

Turning to RRIRVRPPRLPRPRPRPIWAPRP, the “shrunken log2 fold change” value came out at 0.256.

Turning to RRIRMRPPRLPRPRPRPEECPRP, the “shrunken log2 fold change” value was 0.0665.

As to RRIRHRPPRLPRPRPRPTPHPRP, the “shrunken log2 fold change” value came out at 0.281.

Regarding RRIRGRPPRLPRPRPRPHVLPRP, the “shrunken log2 fold change” value was -0.00476.

Regarding RRIRDRPPRLPRPRPRPMLFPRP, the “shrunken log2 fold change” value was -0.0792.

For RRIRCRPPRLPRPRPRPKLDPRP, the “shrunken log2 fold change” value is 0.125.

As for RRIRERPPRLPRPRPRPVGSPRP, the “shrunken log2 fold change” value is -0.174.

On to RRIRCRPPRLPRPRPRPSMIPRP, for which the “shrunken log2 fold change” value was -0.892.

Regarding RRIRCRPPRLPRPRPRPRTLPRP, the “shrunken log2 fold change” value was determined as 0.209.

On to RRIRGRPPRLPRPRPRPDVFPRP, for which the “shrunken log2 fold change” value worked out at 0.438.

For RRIRKRPPRLPRPRPRPDCSPRP, the “shrunken log2 fold change” value is -0.0754.

For the sequence RRIRWRPPRLPRPRPRPRVLPRP, the “shrunken log2 fold change” value turned out to be 0.381.

On to RRIRKRPPRLPRPRPRPKYEPRP, for which the “shrunken log2 fold change” value was 0.057.

On to RRIRERPPRLPRPRPRPTHRPRP, for which the “shrunken log2 fold change” value was found to be 0.243.

RRIRLRPPRLPRPRPRPWMGPRP: the “shrunken log2 fold change” value was -0.363.

With RRIRARPPRLPRPRPRPIPCPRP, the “shrunken log2 fold change” value was found to be 0.0669.

Consider RRIRCRPPRLPRPRPRPLQGPRP, for which the “shrunken log2 fold change” value is 0.0488.

For the sequence RRIRFRPPRLPRPRPRPCYMPRP, the “shrunken log2 fold change” value came to 1.54.

Regarding RRIRLRPPRLPRPRPRPPARPRP, the “shrunken log2 fold change” value turned out to be 0.789.

For the sequence RRIRCRPPRLPRPRPRPSDDPRP, the “shrunken log2 fold change” value was found to be 0.334.

For the sequence RRIRRRPPRLPRPRPRPTLFPRP, the “shrunken log2 fold change” value was 0.826.

On to RRIRCRPPRLPRPRPRPTWTPRP, for which the “shrunken log2 fold change” value worked out at 0.362.

With RRIRRRPPRLPRPRPRPNGCPRP, the “shrunken log2 fold change” value was 0.00793.

As for RRIRWRPPRLPRPRPRPASRPRP, the “shrunken log2 fold change” value was -0.00682.

Consider RRIRWRPPRLPRPRPRPECNPRP, for which the “shrunken log2 fold change” value stood at 0.457.

Turning to RRIRFRPPRLPRPRPRPYGCPRP, the “shrunken log2 fold change” value was -0.531.

Regarding RRIRMRPPRLPRPRPRPNCGPRP, the “shrunken log2 fold change” value was -0.216.

In the case of RRIRDRPPRLPRPRPRPYSSPRP, the “shrunken log2 fold change” value is -0.152.

As for RRIRQRPPRLPRPRPRPHPAPRP, the “shrunken log2 fold change” value is -0.114.

On to RRIRIRPPRLPRPRPRPSVSPRP, for which the “shrunken log2 fold change” value was -0.0804.

As for RRIRSRPPRLPRPRPRPMKWPRP, the “shrunken log2 fold change” value came out at 0.053.

For the sequence RRIRQRPPRLPRPRPRPNVMPRP, the “shrunken log2 fold change” value is -0.254.

In the case of RRIRYRPPRLPRPRPRPWHMPRP, the “shrunken log2 fold change” value was -0.311.

Regarding RRIRLRPPRLPRPRPRPYPHPRP, the “shrunken log2 fold change” value is -0.323.

As to RRIRRRPPRLPRPRPRPNRQPRP, the “shrunken log2 fold change” value is -0.031.

As for RRIRYRPPRLPRPRPRPLHLPRP, the “shrunken log2 fold change” value is -0.516.

For RRIRSRPPRLPRPRPRPMRPPRP, the “shrunken log2 fold change” value turned out to be 0.787.

In the case of RRIRPRPPRLPRPRPRPYFDPRP, the “shrunken log2 fold change” value was -0.561.

Turning to RRIRTRPPRLPRPRPRPTTLPRP, the “shrunken log2 fold change” value was -0.316.

As to RRIRMRPPRLPRPRPRPAGNPRP, the “shrunken log2 fold change” value came out at 0.396.

As to RRIRQRPPRLPRPRPRPHYVPRP, the “shrunken log2 fold change” value was -0.123.

Regarding RRIRNRPPRLPRPRPRPCACPRP, the “shrunken log2 fold change” value is -0.0293.

As for RRIRLRPPRLPRPRPRPCQIPRP, the “shrunken log2 fold change” value is -0.102.

On to RRIRMRPPRLPRPRPRPEHYPRP, for which the “shrunken log2 fold change” value was -0.0905.

RRIRSRPPRLPRPRPRPGVRPRP: the “shrunken log2 fold change” value was -0.0323.

Consider RRIRCRPPRLPRPRPRPPIVPRP, for which the “shrunken log2 fold change” value was -0.089.

For the sequence RRIRRRPPRLPRPRPRPERKPRP, the “shrunken log2 fold change” value turned out to be 0.0556.

Turning to RRIRVRPPRLPRPRPRPGLDPRP, the “shrunken log2 fold change” value turned out to be 0.0777.

In the case of RRIRDRPPRLPRPRPRPWHNPRP, the “shrunken log2 fold change” value is -0.144.

Regarding RRIRMRPPRLPRPRPRPKARPRP, the “shrunken log2 fold change” value was 1.61.

Regarding RRIRFRPPRLPRPRPRPRHEPRP, the “shrunken log2 fold change” value was determined as 0.197.

For the sequence RRIRYRPPRLPRPRPRPVQFPRP, the “shrunken log2 fold change” value is -0.00142.

Take RRIRIRPPRLPRPRPRPRPEPRP: the “shrunken log2 fold change” value worked out at 0.11.

With RRIRQRPPRLPRPRPRPDDGPRP, the “shrunken log2 fold change” value is -0.171.

On to RRIRSRPPRLPRPRPRPHWHPRP, for which the “shrunken log2 fold change” value was -0.124.

In the case of RRIRFRPPRLPRPRPRPMFRPRP, the “shrunken log2 fold change” value worked out at 0.0591.

With RRIRTRPPRLPRPRPRPMIHPRP, the “shrunken log2 fold change” value is -0.609.

As for RRIRARPPRLPRPRPRPPVHPRP, the “shrunken log2 fold change” value amounted to 0.516.

Take RRIRFRPPRLPRPRPRPEGEPRP: the “shrunken log2 fold change” value was -0.0563.
